Laboratory results from patent publication US20020048812A1, “Isolation and in vitro differentiation of conditionally immortalized murine olfactory receptor neurons” (priority 2000, published 2002).
Entries after “also recorded” stand apart in the source; their conditions may differ.

Key:
[1] = test system: NST+ cells in the heterogeneous culture; assay: Counting NST+ cells (anti-NST labeling) in heterogeneous olfactory cell cultures with growth factors; format: cell-based, mouse; details: for Normalized # of NST+ Cells: 100 ng.ml^−1
Protocol: FIG. 2A. Interferon causes a significant, dose-dependent increase in the number of NST+ cells in the heterogeneous culture, with an EC50 of 0.4 U.ml^−1. Cells were incubated at 33° C. and were stained with anti-NST and rhodamine-coupled secondary antibodies seven days after plating. Cell counts were obtained from ten randomly selected areas in each experiment. Data were normalized to the mean number of NST+ cells in the absence of interferon and each point represents the mean ±S.E.M from three experiments.
FIG. 2B. EGF (•) and NGF (□) both have mitogenic effects in permissive conditions over and above the effect of interferon. NST+ cells were counted as described in (A) and were normalized to baseline levels in the presence of interferon (40 U.ml^−1). […] Except for the presence of interferon (40 U.ml^−1), all experimental conditions were as in A.
To determine the optimal conditions for cell survival, growth, differentiation and maturation, cells were cultured in permissive and non-permissive conditions in the presence of interferon, EGF, NGF, BDNF and NT-3. […] The effects of EGF, NGF, BDNF and NT-3 on cell maturation in non-permissive culture conditions were
To keep the amount of expressed TAg to the minimum required for immortalization (Noble et al., 1995), heterozygous offspring from homozygous male H-2K^b-tsA58 transgenic and C57B1 female mice (Charles River Laboratories, Wilmington Mass., and Jackson Laboratory, Bar Harbor, Me., respectively) were used to generate the conditionally immortal neuronal cell culture. Cells were isolated in a procedure modified from a previously established technique (Ronnett et al., 1991). Briefly, post-natal day 1-3 animals were decapitated and the heads were sectioned longitudinally. The olfactory epithelium and nasal septum were removed and placed in an Eppendorf tube containing 500 μl culture medium. The culture medium consisted of Minimum Essential Medium in which the L-valine has been replaced by D-valine (MDV). This was supplemented with 10% fetal bovine serum (FBS), 4 mM glutamine, kanamycin (100 μg.ml^−1), gentamicin (50 U.ml^−1) and amphotericin B (2.5 μg.ml^−1; all from Gibco BRL, Gaithersburg, Md.). The MDV medium was chosen because fibroblasts lack D-amino acid oxidase and the reduction of L-valine inhibits fibroblast survival and growth (Gilbert et al., 1986). Tissue was centrifuged at low speed for two minutes and then most of the medium was removed. The cell pellet was chopped briefly with a pair of fine-point scissors before being resuspended in supplemented cell culture medium. The resultant cell clumps and cell suspension were plated out onto 2- or 4-chamber glass slides (Nunc, Naperville, Ill.) or plastic dishes (Fisher Scientific, Pittsburgh, Pa.). To enhance ORN adhesion, all cell culture materials were pretreated with laminin (0.125 mg.ml^−1 in serum-free media, Collaborative Biomedical Products, Bedford, Mass.) for at least 12 hours, prior to plating. Cells were maintained in culture at 33° C. (the permissive temperature for the SV40 TAg) and, to stimulate transcription of the transgene, the culture medium was supplemented with murine γ-interferon (40 U.ml^−1, Genzyme, Cambridge, Mass.). Provisionally, in permissive conditions, the cell culture medium was supplemented with epidermal growth factor (EGF, 20 ng.ml^−1, Gibco BRL) and 2.5 S nerve growth factor (NGF, 10 ng.ml^−1, Gibco BRL) before thorough characterizations of their effects were made in later experiments.
To determine optimum conditions for cell survival, growth, differentiation or maturation, numerous combinations of culture conditions were tested. These included i) removal of the olfactory epithelium from newborn, 4-week-old, and sexually mature animals, ii) subjecting tissue to digestion by trypsin (Gibco BRL, 0.5 g.l^−1 for 60 minutes at 37° C.), iii) addition of growth factors to the culture medium and iv) the use of diverse culture media. […]

[2] = test system: olfactory marker protein (OMP); assay: OMP expression by Western blot in cells in non-permissive conditions; format: cell-based, mouse; details: 37° C., heterogeneous cell cultures, 15 μg protein per lane
Protocol: FIG. 2C. Effects of EGF, NGF, BDNF and NT-3 on OMP expression as determined by Western blot. Cells were maintained in non-permissive conditions at 37° C. in the absence of growth factors (C) or in presence of EGF (E), NGF (N), BDNF (B) or NT-3 (3). Samples were isolated from the heterogeneous cell cultures and from olfactory tissue (T), and were separated on a SDS-polyacrylamide gel (15 μg protein per lane). OMP is a 19 kD protein and, in situ, is expressed only in mature olfactory receptor neurons. OMP was not detected in control cells (C), cultured in the absence of growth factors or in cells incubated in the presence of EGF.
assayed by Western blot detection of olfactory marker protein (OMP), a marker of mature olfactory receptor neurons (Margolis, 1988).
Cells were always maintained in permissive culture conditions except when attempts were made to obtain a differentiated phenotype through transgene inactivation. In this case, cells were incubated in non-permissive culture conditions, i.e. at 37° C. in γ-interferon-free media for seven days, before the effects of transgene inactivation were determined. The effects of EGF, NGF, BDNF and NT-3 in promoting cell maturation/differentiation were assessed and, based on those experiments, BDNF and NT-3 were routinely added to the culture medium for cells in non-permissive culture conditions. In both culture environments, the air was kept humidified and contained 5% CO2.
Cells were scraped into a cold isolation buffer containing 20 mM Na(N-tris[hydroxymethyl]methyl-2-aminoethanesulfonic acid) (Na TES), 10 mM mannitol and 1% Triton X-100 at pH 7.4. The isolation buffer was supplemented with phenylmethylsulfonyl fluoride (30 μg.ml^−1), leupeptin (2 μg.ml^−1), benzamidine (16 μg.ml^'1), pepstatin (2 μg.ml^−1), and lima bean trypsin inhibitor (50 μg.ml^−1) to prevent protease activity. After five freeze/thaw cycles, cell extracts were centrifuged at 2,000 g for 5 minutes to pellet nuclei and cell debris. […]

B1: NT-3: neurotrophin-3 (Peprotech) (protein, UniProt P20783 139-257, looked up)
Neurotrophin-3: YAEHKSHRGEYSVCDSESLWVTDKSSAIDIRGHQVTVLGEIKTGNSPVKQYFYETRCKEARPVKNGCRGIDDKHWNSQCKTSQTYVRALTSENNKLVGWRWIRIDTSCVCALSRKIGRT
modifications: Neurotrophin-3
- Normalized # of NST+ Cells ([1]; 33° C., in the presence of 40 U.ml^−1 interferon, normalized to that point): 0.8 ± 0.1
- Normalized # of NST+ Cells ([1]; 37° C.): 1.4 ± 0.1
- Effect on the number of NST+ cells (in words) ([1]; permissive conditions (33° C.)): no effect
- OMP expression detected by Western blot (in words) [2]: significant expression of OMP could be observed; also recorded: greater from cells incubated with NT-3 than with BDNF; also recorded: most readily detected
